Results published in patent US20240417476A1 (ATYR PHARMA, published 2024).
Values belong to the binder of their own block, whether it stands above or below them. Ends that are not written are not given here.

Tests used:
[1] = target: T1, NRP2b peptide (biotinylated) (human, biotin-conjugated, site not stated); experiment: peptide ELISA
T1 construct: also called NRP2b isoform specific peptide
T1 peptide: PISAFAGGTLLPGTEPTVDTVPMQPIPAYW

[2] = target: Short NRP2A peptide (biotinylated) (human, biotin-conjugated, site not stated); experiment: BLI, peptide on sensor;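 note: octet RED96e biolayer interferometry with biotin-conjugated NRP2 peptides spanning isoform-specific regions (human and mouse) loaded on biosensors, antibodies applied at 50 nM, association read over 300 s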
[3] = target: T2, NRP2a_scan 1 peptide (biotinylated) (human, also: biotin-conjugated, site not given here); experiment: BLI, peptide on sensor;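 note: octet RED96e biolayer interferometry with biotin-conjugated NRP2 peptides spanning isoform-specific regions (human and mouse) loaded on biosensors, antibodies applied at 50 nM, association read over 300 s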
T2 peptide: VDIPEIHEREGY

[4] = target: T3, NRP2a_scan 2 peptide (biotinylated) (human, also: biotin-conjugated, site not given here); experiment: BLI, peptide on sensor;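 note: octet RED96e biolayer interferometry with biotin-conjugated NRP2 peptides spanning isoform-specific regions (human and mouse) loaded on biosensors, antibodies applied at 50 nM, association read over 300 s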
T3 peptide: PEIHEREGYEDE

[5] = target: T4, NRP2a_scan 3 peptide (biotinylated) (human, also: biotin-conjugated, site not given here); experiment: BLI, peptide on sensor;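 note: octet RED96e biolayer interferometry with biotin-conjugated NRP2 peptides spanning isoform-specific regions (human and mouse) loaded on biosensors, antibodies applied at 50 nM, association read over 300 s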
T4 peptide: HEREGYEDEIDD

[6] = target: T5, NRP2a_scan 4 peptide (biotinylated) (human, also: biotin-conjugated, site not given here); experiment: BLI, peptide on sensor
T5 peptide: EGYEDEIDDEYE

[7] = target: T6, NRP2a_scan 5 peptide (biotinylated) (human, also: biotin-conjugated, site not given here); experiment: BLI, peptide on sensor
T6 peptide: EDEIDDEYEVDW

[8] = target: T7, NRP2a_scan 6 peptide (biotinylated) (human, also: biotin-conjugated, site not given here); experiment: BLI, peptide on sensor
T7 peptide: IDDEYEVDWSNS

[9] = target: T8, NRP2a_scan 7 peptide (biotinylated) (human, also: biotin-conjugated, site not given here); experiment: BLI, peptide on sensor
T8 peptide: EYEVDWSNSSSA

[10] = target: T9, Mid-NRP2A peptide (biotinylated) (human, biotin-conjugated, site not stated); experiment: BLI, peptide on sensor
T9 peptide: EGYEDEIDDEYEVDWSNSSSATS

[11] = target: T10, Mid-mNRP2A peptide (biotinylated) (mouse, biotin-conjugated, site not stated); experiment: BLI, peptide on sensor
T10 peptide: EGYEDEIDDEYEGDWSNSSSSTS

[12] = target: mNRP2b peptide (biotinylated) (mouse, biotin-conjugated, site not stated); experiment: BLI, peptide on sensor
[13] = target: T11, mNRP2A peptide (biotinylated) (mouse, biotin-conjugated, site not stated); experiment: BLI, peptide on sensor, 50 nM antibody
T11 construct: also called mouse NRP2 isoform a peptide

[14] = target: T12, NRP2A peptide (biotinylated) (human, biotin-conjugated, site not stated); experiment: BLI, isoform peptide on sensor, 50 nM antibody
T12 construct: also called NPR2A; NRP2a specific peptide

[15] = target: T13, human NRP2a v2 expressed on Expi293F cells (human, UniProt O60462 23-931); experiment: flow cytometry, Expi293F cells transfected with the target, fluorescent anti-mouse secondary; MFI signal relative to mock-transfected cells
T13 construct: cDNA Origene RCC220706; also called NRP2 v2
Description: (§1) Signal to noise was calculated as the staining intensity of transfected cells compared to an un-transfected ‘mock’ population.

[16] = target: T14, human NRP2b expressed on Expi293F cells (human); experiment: as above
T14 construct: also called full length NRP2b
T14 chain: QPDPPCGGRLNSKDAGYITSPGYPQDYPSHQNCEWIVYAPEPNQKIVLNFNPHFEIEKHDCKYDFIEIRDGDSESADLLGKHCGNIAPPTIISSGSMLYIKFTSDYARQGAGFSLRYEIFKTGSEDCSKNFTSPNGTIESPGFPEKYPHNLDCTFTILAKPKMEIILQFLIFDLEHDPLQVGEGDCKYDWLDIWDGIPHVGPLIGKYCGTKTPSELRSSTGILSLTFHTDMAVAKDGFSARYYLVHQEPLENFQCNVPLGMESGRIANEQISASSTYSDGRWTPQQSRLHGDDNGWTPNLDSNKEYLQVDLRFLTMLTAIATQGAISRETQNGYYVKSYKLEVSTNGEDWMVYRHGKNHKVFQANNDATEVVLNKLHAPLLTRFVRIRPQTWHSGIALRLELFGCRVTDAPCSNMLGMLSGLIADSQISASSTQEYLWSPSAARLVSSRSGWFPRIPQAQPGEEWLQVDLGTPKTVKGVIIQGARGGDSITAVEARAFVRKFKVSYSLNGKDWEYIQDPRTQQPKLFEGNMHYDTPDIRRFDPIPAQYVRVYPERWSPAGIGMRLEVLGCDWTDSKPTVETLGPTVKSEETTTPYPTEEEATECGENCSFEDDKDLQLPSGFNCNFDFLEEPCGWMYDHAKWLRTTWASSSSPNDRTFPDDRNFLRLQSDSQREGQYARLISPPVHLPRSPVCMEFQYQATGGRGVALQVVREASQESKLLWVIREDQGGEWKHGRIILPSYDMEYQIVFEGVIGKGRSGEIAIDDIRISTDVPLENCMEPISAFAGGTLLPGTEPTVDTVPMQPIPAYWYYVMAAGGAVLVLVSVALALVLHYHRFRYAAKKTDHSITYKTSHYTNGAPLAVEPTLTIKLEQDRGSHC
Description: as §1

NRP2v3 = target: T15, NRP2v3; experiment: as above
T15 construct: not the NanoLuc-tagged construct m33; also called human NRP2 v3 expressed on Expi293F cells; NRP2a v3
T15 chain: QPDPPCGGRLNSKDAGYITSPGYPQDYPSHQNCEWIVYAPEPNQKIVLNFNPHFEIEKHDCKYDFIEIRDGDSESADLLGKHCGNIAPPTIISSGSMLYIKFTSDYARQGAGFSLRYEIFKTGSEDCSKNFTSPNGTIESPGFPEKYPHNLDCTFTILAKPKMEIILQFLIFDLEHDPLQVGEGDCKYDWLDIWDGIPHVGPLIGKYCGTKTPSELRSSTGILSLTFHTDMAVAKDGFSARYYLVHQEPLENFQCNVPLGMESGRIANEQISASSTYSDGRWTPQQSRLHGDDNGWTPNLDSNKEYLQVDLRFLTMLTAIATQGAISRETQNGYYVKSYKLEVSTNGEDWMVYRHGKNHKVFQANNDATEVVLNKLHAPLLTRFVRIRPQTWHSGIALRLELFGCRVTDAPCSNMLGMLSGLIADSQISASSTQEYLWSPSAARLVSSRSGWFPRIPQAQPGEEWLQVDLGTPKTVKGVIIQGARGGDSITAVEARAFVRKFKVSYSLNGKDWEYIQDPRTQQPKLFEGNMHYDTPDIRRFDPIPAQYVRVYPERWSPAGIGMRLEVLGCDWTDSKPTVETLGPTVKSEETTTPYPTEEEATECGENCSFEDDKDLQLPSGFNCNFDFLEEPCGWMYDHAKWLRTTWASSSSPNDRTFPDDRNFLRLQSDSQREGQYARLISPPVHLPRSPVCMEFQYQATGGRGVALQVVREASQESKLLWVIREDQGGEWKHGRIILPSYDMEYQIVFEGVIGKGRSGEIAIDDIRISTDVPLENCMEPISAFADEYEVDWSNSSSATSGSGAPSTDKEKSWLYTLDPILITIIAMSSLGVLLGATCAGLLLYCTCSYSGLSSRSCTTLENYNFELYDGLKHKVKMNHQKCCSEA
Description: as §1

[17] = target: T6, NRP2a_scan 5 peptide (biotinylated); experiment: BLI, peptide on sensor, 50 nM antibody
[18] = target: T7, NRP2a_scan 6 peptide (biotinylated); experiment: BLI, peptide on sensor, 50 nM antibody
[19] = target: T9, Mid-NRP2A peptide (biotinylated); experiment: BLI, peptide on sensor, 50 nM antibody

Chain of mNRP2b peptide (biotinylated) (mouse, biotin-conjugated, site not stated) (peptide, as listed by the source): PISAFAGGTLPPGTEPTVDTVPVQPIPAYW

binding result [1]: no binding (tested: <3x blank)
binding result [2]: no binding (tested: 50 nM)
binding result [3]: no binding (tested: 50 nM)
binding result [4]: no binding (tested: 50 nM)
binding result [5]: no binding (tested: 50 nM)
binding result [6]: no binding (tested: 50 nM)
binding result [7]: no binding (tested: 50 nM)
binding result [8]: no binding (tested: 50 nM)
binding result [9]: no binding (tested: 50 nM)
binding result [10]: no binding (tested: 50 nM)
binding result [11]: no binding (tested: 50 nM)
binding result [12]: no binding (tested: 50 nM)
binding result [13]: binds
binding result [14]: binds
binding result [15]: binds
binding result [16]: no binding
binding result (NRP2v3): no binding
B1: aNRP2-408v2 (antibody, V domains shown)
VH: EVKLVESGGGLVKPGGSLKLSCAASGFTFSSYAMSWVRQTPEKRLEWVASISRGSITYYPDSVKGRFTISRDNAGNILYLQMSSLRSEDTAMYYCAREYYYAMDYWGQGTSVTVSS
VL: DIQMTQSPSSLSASLGERVSLTCRASQDIGSRLNWLQQEPDGTIKRLIYATSSLDSGVPKRFSGSRSGSDYSLTISSLESEDFVDYYCLQYASSPYTFGGGTKLEIK
notes: Mouse monoclonal

binding result [1]: no binding (tested: <3x blank)
binding result [2]: no binding (tested: 50 nM)
binding result [3]: no binding (tested: 50 nM)
binding result [4]: no binding (tested: 50 nM)
binding result [5]: no binding (tested: 50 nM)
binding result [6]: no binding (tested: 50 nM)
binding result [7]: no binding (tested: 50 nM)
binding result [8]: no binding (tested: 50 nM)
binding result [9]: no binding (tested: 50 nM)
binding result [10]: no binding (tested: 50 nM)
binding result [11]: no binding (tested: 50 nM)
binding result [12]: no binding (tested: 50 nM)
binding result [16]: no binding
binding result (NRP2v3): no binding
B2: aNRP2-409v3 (antibody, V domains shown)
VH: EVQFVETGGGLVQPKGSLKLSCAASGFTFNTNAMNWVRQAPGKGLEWVARIRTKSNNYATYYADSVKDRFTISRDDSQNILYLQMNNLKTEDTAMYYCVTLDSSGYVWFAYWGQGTLVTVSA
VL: B1 VL
notes: Mouse monoclonal; also called 409 v2; aNRP2-409v2

binding result [1]: no binding (tested: <3x blank)
binding result [2]: no binding (tested: 50 nM)
binding result [3]: no binding (tested: 50 nM)
binding result [4]: no binding (tested: 50 nM)
binding result [5]: no binding (tested: 50 nM)
binding result [6]: no binding (tested: 50 nM)
binding result [9]: no binding (tested: 50 nM)
binding result [12]: no binding (tested: 50 nM)
binding result [17]: binds
binding result [18]: binds
binding result [19]: binds
binding result [14]: binds
B3: aNRP2-403v2 (antibody, V domains shown)
VH: QVQLQQPGAELVKPGASVKLSCKASGYTFTSYWMHWVKQRPGRGLEWIGRIDPNSGDTKYNEKFKSKATLTVDKPSSTAYMQVSSLTSEDSAVYYCARSYDYALEYWGQGTSVTVSS
VL: DVVMTQTPLSLPVSLGDQASISCRSSQSLVHSNGNTYLHWFLQKPGQSPNLLIYKVSNRFSGVPDRFSGSGSGTDFTLKISRVEAEDLGVYFCSQNTRVPRTFGGGTKLEIK
notes: Mouse monoclonal

binding result [1]: no binding (tested: <3x blank)
binding result [2]: no binding (tested: 50 nM)
binding result [3]: no binding (tested: 50 nM)
binding result [4]: no binding (tested: 50 nM)
binding result [5]: no binding (tested: 50 nM)
binding result [6]: no binding (tested: 50 nM)
binding result [7]: no binding (tested: 50 nM)
binding result [8]: no binding (tested: 50 nM)
binding result [9]: no binding (tested: 50 nM)
binding result [10]: no binding (tested: 50 nM)
binding result [11]: no binding (tested: 50 nM)
binding result [12]: no binding (tested: 50 nM)
binding result [13]: binds
binding result [14]: binds
binding result [16]: no binding
binding result (NRP2v3): no binding
B4: aNRP2-405v2 (antibody, V domains shown)
VH: EVMLVESGGGLVKPGGSLKLSCAASGFTFRRYAMSWVRQTPEKGLEWVATITSGGSYTYYLDSVKGRITISRDNAKNTLYLQMSSLRSEDTAMYYCARHGIYGGFDYWGQGTTLTVSS
VL: DVLMTQTPLSLPVSLGDQASISCRSSQSIVHSDGNTYLEWYLQKPGQSPNLLIYKVSNRFSGVPDRFSGSGSGTDFTLKISRVEAEDLGIYYCFQGSHVPFTFGSGTKLEIK
notes: Mouse monoclonal
